Assay results as given in US20240101668A1 (WUGEN, published 2024).
Numbering of substitutions follows the chain as printed.

T1: huCLL1-Q244-Avi-Tev-His (human, UniProt Q5QGZ9 65-265)
T1 construct: extracellular domain; also called CLL-1 K244Q
T1 sequence (looked up): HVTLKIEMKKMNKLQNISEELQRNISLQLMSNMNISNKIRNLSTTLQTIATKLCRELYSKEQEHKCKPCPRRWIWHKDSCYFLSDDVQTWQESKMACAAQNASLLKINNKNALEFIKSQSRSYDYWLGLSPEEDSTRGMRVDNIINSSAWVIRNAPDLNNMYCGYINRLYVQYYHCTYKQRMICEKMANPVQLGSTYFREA

T2: huCLL1-K244-Avi-Tev-His (human, UniProt Q5QGZ9 65-265)
T2 construct: extracellular domain
T2 sequence (looked up): T1 sequence (looked up) with Q180K

B1: Polypeptide No. 161 (scFv, V domains shown)
VH: QVQLVQSGAEVKKPGASVKVSCKASGYTFTSYDINWVRQAPGQGLEWMGMINPNSGGTSYAQKFQGRVTMTRDTSTSTVYMELSSLRSEDTAVYYCARELLGESFDYWGQGTLVTVSS
VL: DIQMTQSPSSLSASVGDRVTITCRASQGISSYLAWYQQKPGKAPKLLIYGASILQSGVPSRFSGSGSGTDFTLTISSLQPEDFATYYCQQSYSTSFTFGPGTKVDIKR
notes: scFv
B2: Polypeptide No. 167 (scFv, V domains shown)
VH: B1 VH with D33Y, I34M, N35H, M50W, S59N, E99G, L100T, L101T, E103D, S104D
VL: B1 VL with G28D, S31T, Y32W, G50A, I53S, T94I, S95P, F96P
notes: scFv
B3: Polypeptide No. 166 (scFv, V domains shown)
VH: QVQLVQSGAEVKKPGASVKVSCKASGYTFESYDMNWVRQAPGQGLEWMGWIDPHSGDTNFAQKFQGRVTMTRDTSTSTVYMELSSLRSEDTAVYYCARADYGGNADYWGQGTLVTVSS
VL: B1 VL with S31N, Y32W, G50D, I53N, Q55E, S56T, S95P, F96Y, P100Q, D105E
notes: scFv
B4: Polypeptide No. 173 (scFv, V domains shown)
VH: QVQLVQSGAEVKKPGASVKVSCKASGYTFNGYNMHWVRQAPGQGLEWMGWINPNSGDTNYAQKFQGRVTMTRDTSTSTVYMELSSLRSEDTAVYYCASLDYGDYAVYWGQGTLVTVSS
VL: B1 VL with G28S, S31T, Y32W, G50D, I53S, Q55R, S95P, F96I, P100Q, D105E
notes: scFv
B5: Polypeptide No. 170 (scFv, V domains shown)
VH: QVQLVQSGAEVKKPGASVKVSCKASGGSFSNHGVSWVRQAPGQGLEWMGWMNPNSGDTGYAQKFQGRVTMTRDTSTSTVYMELSSLRSEDTAVYYCARPRKDDAFAIWGQGTLVTVSS
VL: B1 VL with G28S, Y32W, G50E, I53T, S95P, F96L, P100Q, D105E
notes: scFv
B6: Polypeptide No. 165 (scFv, V domains shown)
VH: B1 VH with M50W, I51M, G57N, S59G, E99L, L100S, L101S, E103Y, S104Y, F105P
VL: DIQMTQSPSSLSASVGDRVTITCRASQFIANWLAWYQQKPGKAPKLLIYDASSLESGVPSRFSGSGSGTDFTLTISSLQPEDFATYYCQQSYSTPLTFGGGTKVEIKR
notes: scFv
B7: Polypeptide No. 169 (scFv, V domains shown)
VH: QVQLVQSGAEVKKPGASVKVSCKASGYTFTNDYIHWVRQAPGQGLEWMGWMSPNSGKTGFAQKFQGRVTMTRDTSTSTVYMELSSLRSEDTAVYYCAKDNSSGWYFDLWGRGTLVTVSS
VL: DIQMTQSPSSLSASVGDRVTITCRVSQGISSYLAWYQQKPGKAPKLLIYDASNLETGVPSRFSGSGSGTDFTLTISSLQPEDFATYYCQQYDTLPITFGQGTRLEIKR
notes: scFv
B8: Polypeptide No. 174 (scFv, V domains shown)
VH: EVQLLESGGGLVQPGGSLRLSCAASGFIFRDHWMHWVRQAPGKGLEWVSSIDFSTGYIYYADSVKGRFTISRDNSKNTLYLQMNSLRAEDTAVYYCARDPWGDGDFDYWGRGTLVTVSS
VL: DIQMTQSPSSLSASVGDRVTITCRASQSISSWLAWYQQKPGKAPKLLIYAASSLQSGVPSRFSGSGSGTDFTLTISSLQPEDFATYYCQQTYTTPYTFGQGTRLEIKR
notes: scFv
B9: Polypeptide No. 175 (scFv, V domains shown)
VH: QVQLVQSGAEVKKPGASVKVSCKASGYTFTSYDIHWVRQAPGQGLEWMGWINPNSGNTGYAQKFQGRVTMTRDTSTSTVYMELSSLRSEDTAVYYCAGGPDVDAAMVLDYWGQGTLVTVSS
VL: DIQMTQSPSSLSASVGDRVTITCQASQDISNYLNWYQQKPGKAPKLLIYDASNLETGVPSRFSGSGSGTDFTLTISSLQPEDFATYYCQQADGFPPTFGGGTKVEIKR
notes: scFv
B10: Polypeptide No. 163 (scFv, V domains shown)
VH: QVQLVQSGAEVKKPGASVKVSCKASGYTFTSYYMQWVRQAPGQGLEWMGWMNPNSGNTGYAQKFQGRVTMTRDTSTSTVYMELSSLRSEDTAVYYCARALYGDYLDIWGQGTTVTVSS
VL: B6 VL with F28P, N31T, A51T, E55Q, T94L, T97G, G100Q
notes: scFv
B11: Polypeptide No. 172 (scFv, V domains shown)
VH: B10 VH with T30S, S31D, M34V, Q35H, A99G, Y101T, Y104Q, L105F, I107Y, T113L
VL: not shown
notes: scFv
B12: Polypeptide No. 171 (scFv, V domains shown)
VH: QVQLVQSGAEVKKPGASVKVSCKASGYTFTDYYIHWVRQAPGQGLEWMGMVDPNTGNINYAQTFQGRVTMTRDTSTSTVYMELSSLRSEDTAVYYCTSGSTNDAFDIWGQGTMVTVSS
VL: B6 VL with F28S, A30G, N31P, D50E, S53N, E55A
notes: scFv
B13: Polypeptide No. 176 (scFv, V domains shown)
VH: QVQLVQSGAEVKKPGASVKVSCKASGGSFTSYYIHWVRQAPGQGLEWVGWMNPNSGNTGYAQKFQGRVTMTRDTSTSTVYMELSSLRSEDTAVYYCARGATDDAFDIWGQGTMVTVSS
VL: DIQMTQSPSSLSASVGDRVTITCRASQNIDTWLAWYQQKPGKAPKLLIYDGSNLEAGVPSRFSGSGSGTDFTLTISSLQPEDFATYYCQQSYNTPITFGQGTRLEIKR
notes: scFv
B14: Polypeptide No. 162 (scFv, V domains shown)
VH: QVQLVQSGAEVKKPGASVKVSCKASGYTFTNYGISWVRQAPGQGLEWMGWINPNSGGTNFAQKFQGRVTMTRDTSTSTVYMELSSLRSEDTAVYYCARGTNGDELDYWGQGTLVTVSS
VL: not shown
notes: scFv
B15: Polypeptide No. 168 (scFv, V domains shown)
VH: B14 VH with F60Y, G99V, T100R, N101S, G102D, E104F, L105F
VL: B6 VL with F28S, I29V, A30N, N31H, D50A, S53T, E55Q, T94L
notes: scFv
B16: Polypeptide No. 164 (scFv, V domains shown)
VH: QVQLVQSGAEVKKPGASVKVSCKASGYTFTAHYIHWVRQAPGQGLEWMGIINPNGGRTTYAQKFQGRVTMTRDTSTSTVYMELSSLRSEDTAVYYCARDSDFWSGYYSDYYYGMDVWGQGTTVTVSS
VL: DIQMTQSPSSLSASVGDRVTITCQASQDISNFLNWYQQKPGKAPKLLIYATSTLQSGVPSRFSGSGSGTDFTLTISSLQPEDFATYYCQQSYTTEWTFGQGTKVEIKR
notes: scFv

What follows are binders tested against T1, huCLL1-Q244-Avi-Tev-His (assay: BLI).

Binding result, binds:
B1
B2
B3
B4
B5
B6
B7
B8
B9
B10
B11
B12
B13
B14
B15
B16

Each binder was assayed against T2, huCLL1-K244-Avi-Tev-His (assay: BLI).

Binding result, binds:
B1
B2
B3
B4
B5
B6
B7
B8
B9
B10
B11
B12
B13
B14
B15
B16
